Data from the DeepSol protein solubility set.

Assay: soluble on expression in E. coli; label from the status in PepcDB or PDB records

Sequence	soluble on expression in E. coli
SLVGYSAVSQPSPASFLLGPTLPPAPSIAFRLWRPYSMTARITSVEALPYRLPLTSKLAWGAHSALSAAEHVLVRVTLSDGSVGVAEATPRPTIYGETPGSVTAILQHLEPALLGLDIADEAALNRVRGSVAGNHTARGALDMALWEARAASRGQSLFDTLLGPHERVRVSFILGIAPPAEMLAEAERVVAAGVRCLKVKVGRHAAQDLQVIAELRRRYGDDVQLYADSNETLTLEQAPDVLAAMREAGLMYVEEPLPARDLRARAALHAAGVLPIVADDSCFTPADLERELDFDTFDVLNVKTARNGFTDGLQMLRRAAEHGKRGMVGSQASTGLGTLHAALLSTQAEVTEPCELSFVLKLGDDLLNRPIEFQDGWLNVPELREHRLDEDKLARYRI	soluble
MGSDKIHHHHHHMSNVTAEQKKEVKGRGFLPSRDGEHFAARIITVNGVINASQAKKIAEAAEKFGNGQLAFTTRLTVELPGVKFEDIEALSEFIASENLITGGTGSRVRPVVACKGTVCVHGLADTQALAAEIHEEFYKNWYDVKLPHKFKIGVGGCPNNCIKPDLNDLGIVGQRVPDYDSELCVGCKKCAVVEVCPVKAAKLTDKGKLEIDSNLCNNCGKCIESCNFDSIEEKESGYKVYIGGKWGKSVRPGTQIDRLFSKEELMTLIEKAILLFREQGNTGERFGITIDRIGADKFIEMLLSDEVLERKEEILEALLHLTGGAVC	not soluble
MKNLAIFDLDNTLINTDSDHAWPQYLIKKGLVDAAETEAQNEKFYRDYQNGCLDIDAFLKLHLAPLARYSKEELAEFHREFMAEYIIPHISPMQRMLVQSHQMAGDETLVISSTNEFIITPVCRLFGIANMIGTQLETGPDGRYTGNYIGTPSLKEGKITRLNQWLAERGETLESYGKTYFYSDSKNDLPLLRLVSEPVAVNPDAELEKEAKEKGWPVLNFK	not soluble
CILRFIACNGQTRAVQSRGDYQKTLAIALKKFSLEDASKFIVCVSQSSRIKLITEEEFKQICFNSSSPERDRLIIVPKEKPCPSFEDLRRSWEIELAQPAALSSQSSLSP	soluble
MKLSHDCIRDILLFSESLPYNEPAFGDKIFKSDLLKKYSSEEINYAVSKLGDDDAQLIKGYVKFASNKPYMTCISSLTFDGHKYLDNIRDPKIWKESKKISSKLASVSIDIMSEIAAKVITKTLGLD	not soluble
MFRLSALYRYPIKSSAAESLERVALDALGVVGDRRWMAVDTETGRFFTQRLLPQLGRIQARWAAPEVLRLNAPGMSELSLEVPAADANLRGVTVWRDTLQAPDAGDAAADWLTRFLGRPTRLVHIPEARARQVDTGYAEPGQKVHFADGFPLLLIGQASLDDLSQRVGRPLEMLRFRPNLVVEGSAAFAEDGWKRIRIGSVEFVVAKPCSRCILTTLDPATGERNEDREPLTTLKTYREKDGAVLFGQNLIALGQGSLEVGMPVEILD	soluble
MKEYRLTDWLPTTKKEVELRGWDELDVILFSGDAYVDHPSFGAAVIGRILEAEGLKVAIIPQPNWRDDLRDFRKLGRPRLFFGISAGSMDSMVNKYTANKRLRSEDAYTPDGRPDMRPEYPSIVYSQILKRLYPDVPVILGSIEASLRRLSHYDYWQDKVQKSILCDSGADLLIYGMGEKPIVELTRKMKELLPAEDASLTAGELKKIAGTIPQTAYLCRATEWTPAADDIQLYSHEECLADKKKQASNFRHIEEESNKYAASRITQEVDNKVVVVNPPYPPMSQEELDHSYDLPYTRLPHPKYKGKRIPAYDMIKFSVNIHRGCFGGCAFCTISAHQGKFIVSRSKKSILNEVKEVMQLPDFKGYLSDLGGPSANMYQMKGKDEAICKKCKRPSCIHPKVCPNLNSDHCPLLDIYKAVDAIPGIKKSFIGSGVRYDLLLHQSKDAATNRSTAEYTRELIVNHVSGRLKVAPEHTSDRVLSIMRKPSFEQFETFKKIFDRINREENLRQQLIPYFISSHPGCKEEDMAELAVITKRLDFHLEQVQDFTPTPMTVATEAWYSGFHPYTLEPVFSAKTQREKLAQRQFFFWYKPEERKNILNELRRIGRQDLIDKLYGKRNK	not soluble
MQIQTPDWVKHAVFYQIFPDRFARSKQPRKRLLQEARWEDWDSMPTLQGYKGGDLWGIMEDLDYIQNLGINAIYFTPIFQSASNHRYHTHDYYQVDPMLGGNEAFKELLDAAHQRNIKVVLDGVFNHSSRGFFFFHDVLENGPHSPWVNWFKIEGWPLSPYNGEFPANYVGWAGNRALPEFNHDNPEVREYIMEIAEYWLKFGIDGWRLDVPFEIKTPGFWQEFRDRTKAINPEAYIVGEVWGDSRQWLDGTQFDGVMNYLFAGPTIAFAAGDRVVLEQVQSRDYQPYPPLFAAEYATKIQEVLQLYPWEIQLTQLNLLASHDTARLMTIAGGDIASVELSTLLLLTFPGAPSIYYGDEVGLPGGIDPDSRRGFPLEANWNQEIFNTHRQLITIRQTYPALRTGDYQVLYAQGQLYLFARTLGTEELIIAINAGTSSATANVDVASLHTQPNKLLYGTAEAEWNGEEGTQQLSLTLPARSGCILGTGD	soluble
SSAEVKVTGQNQEQFLLLAKSAKGAALATLIHQVLEAPGVYVFGELLDMPNVRELAESDFASTFRLLTVFAYGTYADYLAEARNLPPLTEAQKNKLRHLSVVTLAAKVKCIPYAVLLEALALRNVRQLEDLVIEAVYADVLRGSLDQRNQRLEVDYSIGRDIQRQDLSAIARTLQEWCVGCEVVLSGIEEQVSRANQHKEQQLGLKQQIESEVANLKKTIKVTTAAAAAATSQDPEQHLTELREPAPGTNQRQPSKKASKGKGLRGSAKIWSKSN	soluble
MGSDKIHHHHHHMADWTDNLPEAAQAYLENRRLDEVECIISDLPGIARGKAVPASKFARQDYFHLPDSIFYQTITGDWGDAAGEEGFIERDMILRPDYSTATAAPWTGDWTLQVIHDAYDRDGDPIPFSPRNVLRRVVSLYHAQGWKPVVAPEMEFFLVARNLDPAKEIEPMMGRSGRPAAARQAYSMTAVDEFGPVIDDIYDFAEAQGFEIDGITQEGGAGQLEINLRHGSPVRLADEVFYFKRLIREAALRHNCFATFMAKPIENEPGSAMHIHHSIVDMETGENIFSGPQGGETDAFYHFIAGLQNHLPSGLAVMAPYVNSYRRYVKDHAAPINLEWGRDNRTTGIRVPLSGPAARRIENRLAGMDCNPYLGIAVSLACGYLGLMEELRPRKQFKGDAYVGEGDIPQVMGDALDLFDEAKALHEVLGPEFARVYSIVKRAEYNEFLQVISPWEREHLLMNV	not soluble
MGHHHHHHSHMDVPYLINCLVFLFCFSKSNEHSSEYPFVRDLSLEGRLLAKNICTFNIHIHIYTHFFLRQRFTLSPRLKCSGMIIVHCSLYLLGSSNPPT	not soluble
MSGIFGVIVSGRTPIEVVPVSDTEFTCEIVNADAINHVVVFLTGAQPFPDGIGGSGDHFQNFPPKKTQFISVYIRWPTQDGGNWHYLGFICNEKPSAIYKVAQLHKSDASHSFSQFDNQMQLYSSGSAQIGINAESLSDITGRQAADGTQASQQVKNLEKNT	soluble
MAAHGGSAASSALKGLIQQFTTITGASESVGKHMLEACNNNLEMAVTMFLDGGGIAEEPSTSSASVSTVRPHTEEEVRAPIPQKQEILVEPEPLFGAPKRRRPARSIFDGFRDFQTETIRQEQELRNGGAIDKKLTTLADLFRPPIDLMHKGSFETAKECGQMQNKWLMINIQNVQDFACQCLNRDVWSNEAVKNIIREHFIFWQVYHDSEEGQRYIQFYKLGDFPYVSILDPRTGQKLVEWHQLDVSSFLDQVTGFLGEHGQLDGLSSSPPKKCARSESLIDASEDSQLEAAIRASLQETHFDSTQTK	not soluble
MGQNSSQIPEHELEHLSIESGLSRGGILKLYGRFISLATHRDKTTNEYFLTKGDFQSIAELKQNPLGDRIIDAFFADAEVLERRKVYFKDFVKVLSHFRPINKNKPHPWNSREAKLRFAFTMYDLNKSGTITKDEFQDILAMMIGVGVPKDQVNSIADRTMREADRDGDGFITFQEFCNAMEKTDIEQKMSFRFLT	not soluble
LTTHNFARKTFLKLAFCDICQKFLLNGFRCQTCGYKFHEHCSTKVPTMCVDW	soluble
FDASNFKDFSSIASASSSWQNQSGSTMIIQVDSFGNVSGQYVNRAQGTGCQNSPYPLTGRVNGTFIAFSVGWNNSTENCNSATGWTGYAQVNGNNTEIVTSWNLAYEGGSGPAIEQGQDTFQYVPTTENKSLLKD	soluble
MGSDKIHHHHHHMETRRDERIGQLLQALKRSDKLHLKEAATLLGVSEMTIRRDLNHKSAPVVLLGGYIVLEPRSASHYLLSDQKSRLVEEKRRAAQLAAGLVQAHQTVFIDCGTTTPWIIEAIDNDLPFTAVCYSLNTFLALQDKPHCRAILSGGEFHASNAIFKPLDFHETLNNICPDIAFYSAAGVHTSKGATCFNLEELPVKHWAMTMAQCHVLVVDHSKFGKVRPARMGELSRFDTIISDRRPDEAFVAYAKAQQITLMY	not soluble
MTENVEYIRVLLKSSQAEVQMLREQNEFRDDLLKMFKVKLEVNALNNLPVRRNLSVEISNLETKKLKTEIAFLKEELGREGKKLTIANTVHEQLKKDLEAEKRNSMFLSELLTFYQNGHQPQLPAEDQFVDFLQTETRSVKEALKEKEEEVKRLLVDMEGKTFQNLTEKGRMEEEMNDAKREAQILRNEMKSLQKNMTAKENELLGYLRDASETHTEMQKDYKIQILELQRRNRILERHLDNIQ	not soluble
MIQLNLPPYEHRIHQEDESMFIFDSIRRRYVALTPEEWVRQHFVHYLTDVLGYPADLIRNEAQLRIDRRRKRCDTVVYDTNLRPIVLCEYKAPTVSLTQKTMDQILCYNFIFRVPLLLLSNGLQHAACLVDYEQSGYVFLPEIPSYEELTTIIQSNQ	not soluble
MGGSHHHHHHGMASALVKSRLNSWFQHRPPGASPERYLGLPGSLKWEDRGPSGQGQGQFLIQQVTLKIPISIEFVFESGSAQAGGNQALPRLAGSLLTQALESHAEGFRERFEKTFQLKEKGLSSGEQVLGQAALSGLLGGIGYFYGQGLVLPDIGVEGSEQKVDPALFPPVPLFTAVPSRSFFPRGFLWDEGFHQLVVQRWDPSLTREALGHWLGLLNADGWIGREQILGDEARARVPPEFLVQRAVHANPPTLLLPVAHMLEVGDPDDLAFLRKALPRLHAWFSWLHQSQAGPLPLSYRWRGRDPALPTLLNPKTLPSGLDDYPRASHPSVTERHLDLRCWVALGARVLTRLAEHLGEAEVAAELGPLAASLEAAESLDELHWAPELGVFADFGNHTKAVQLKPRPPQGLVRVVGRPQPQLQYVDALGYVSLFPLLLRLLDPTSSRLGPLLDILADSRHLWSPFGLRSLAASSSFYGQRNSEHDPPYWRGAVWLNVNYLALGALHHYGHLEGPHQARAAKLHGELRANVVGNVWRQYQATGFLWEQYSDRDGRGMGCRPFHGWTSLVLLAMAEDY	not soluble
MGSDKIHHHHHHMEEVVKRLAEIRAMDARGEGGRLFTYLYETGDPGVKEVSLRAFEMFLDTNALDPTVFKSALFFERELVSFASSLAGGVEGVVGTVTYGGTESIILAAMAAREWYRSLGGSRTPGIVAPQTVHPSVRKAARYLGMRLSIAPVDPGSKRVDIDSLVSLVDDRTAMVVVSAPNYPYGTVDDVRSVAEALSSQRVWLHVDACVGGFILPFMRELGLYSGAFAFDVEGVYSVSMDLHKYGYSPKGASVLLFRDGSLKKHSIFADLRWPGYPFINTTVLSSRSVAPLAAAWAVTNYLGRRGYLELARKAVEARDEIMRGLESIGFRSLAPIESTILSVALDDPADTLRFHANMSRRGWILGLQPGVEGLAPPNIHLTISPIHKLVSPQFLGDARASSSEPLPKELEEAWRLLESRGPLELAGMIGRTQYDQVIIAWILSSIPPDLAEDLARELTVEVYRG	not soluble
MDNKVILVGGFHEIIELCEDNDIEIAGIIDNYLTNDTYWGYPIIGTDDKAKVLFETYKNVPVLITPDVPHVRYKLYHYYKSIGFQVASLISRDASISRSAIIGEGTIIQRGANLSSNIKIGQMVKVNTNANIMHDCLIGNYVTVAPNAVLLGKVEIDDKAYIGANATLLPSVKIGENVTVGAGSVVTKSVRPNTVVKGSPLEHHHHHH	soluble
